{"source": "paper PMC6640694", "assay_in_all_cases": "BLI; Octet Red96; 5 μg/mL antibody loaded onto Protein A biosensor, dipped into His-tagged OX40 extracellular domain at 200, 100 and 50 nM or 1600, 800 and 400 nM; 1:1 binding model, global fit", "key": {"[1]": {"molecular_target": "tOX40.15"}, "[2]": {"molecular_target": "tOX40.19"}, "[3]": {"molecular_target": "tOX40.21"}, "[4]": {"molecular_target": "tOX40.22"}, "[5]": {"molecular_target": "tOX40.23"}, "[6]": {"molecular_target": "tOX40.31"}, "[7]": {"molecular_target": "tOX40.35"}, "[8]": {"molecular_target": "tOX40.37"}, "[9]": {"molecular_target": "tOX40.39"}, "[10]": {"molecular_target": "tOX40.40"}, "[11]": {"molecular_target": "tOX40.41"}, "[12]": {"molecular_target": "tOX40.4"}, "[13]": {"molecular_target": "tOX40.50"}, "[14]": {"molecular_target": "tOX40.54"}}, "data": [{"binder": "recombinant His-tagged human OX40 extracellular domain (domain or fragment) LHCVGDTYPSNDRCCHECRPGNGMVSRCSRSQNTVCRPCGPGFYNDVVSSKPCKPCTWCNLRSGSERKQLCTATQDTVCRCRAGTQPLDSYKPGVDCAPCPPGHFSPGDNQACKPWTNCTLAGKHTLQPASNSSDAICEDRDPPATQPQETQGPPARPITVQPTEAWPRTSQGPSTRPVEVPGGRA", "values": [{"measurement": "Kd", "setting": "[1]", "result": 0.006, "unit": "µM"}, {"measurement": "Kd", "setting": "[2]", "result": 0.0077, "unit": "µM"}, {"measurement": "Kd", "setting": "[3]", "result": 0.007, "unit": "µM"}, {"measurement": "Kd", "setting": "[4]", "result": 0.0073, "unit": "µM"}, {"measurement": "Kd", "setting": "[5]", "result": 0.0052, "unit": "µM"}, {"measurement": "Kd", "setting": "[6]", "result": 0.0224, "unit": "µM"}, {"measurement": "Kd", "setting": "[7]", "result": 0.0027, "unit": "µM"}, {"measurement": "Kd", "setting": "[8]", "result": 0.0125, "unit": "µM"}, {"measurement": "Kd", "setting": "[9]", "result": 0.09, "unit": "µM"}, {"measurement": "Kd", "setting": "[10]", "result": 0.151, "unit": "µM"}, {"measurement": "Kd", "setting": "[11]", "result": 0.0584, "unit": "µM"}, {"measurement": "Kd", "setting": "[12]", "result": 0.009, "unit": "µM"}, {"measurement": "Kd", "setting": "[13]", "result": 0.0298, "unit": "µM"}, {"measurement": "Kd", "setting": "[14]", "result": 0.184, "unit": "µM"}]}]}
